Data as given in the RNAGym collection of RNA variant scans (doi:10.7554/elife.80360).

B1: Twister Ribozyme (parent)
chain: AACACUGCCAAUGCCGGUCCCAAGCCCGGAUAAAAGUGGAGGGGGCGG

Variants of: B1
Assay: self-cleavage, relative activity (ratio to wild type); higher = more cleavage; co-transcriptional

Variant	self-cleavage
U18C U37A	0.197
C19G A35G	0.0996
U18G G41U	0.0362
U18G G41A	0.0588
U18G C20A	0.057
U18G C20G	0.069
U18C G28U	0.156
U18G G44U	0.0806
U18G G44C	0.0756
C19A G39A	0.136
C19A G39C	0.126
C19A A32U	0.189
C19A A32C	0.201
C19G C46A	0.18
C19G G41U	0.104
C19G G41A	0.113
C19G G41C	0.136
C19G G48U	0.218
C19G G48C	0.23
C19A G44A	0.685
C19A C21U	0.0833
C19G G28C	0.108
U18C G24U	0.079
U18C G24C	0.0613

Variant	self-cleavage
U18C G41A	0.137
U18G G38U	0.0721
U18G G38C	0.102
U18G G29C	0.0613
U18G C21A	0.133
U18G C21G	0.0716
U18G G24C	0.117
U18G G24A	0.0714
U18C G44A	0.714
U18G C26G	0.0643
C19A G29A	0.27
U18G G28U	0.089
C19G G39A	0.104
C19G G39U	0.118
C19G G39C	0.162
C19G A40G	0.135
C19G A40U	0.0582
C19G A22G	0.0844
U18G A40C	0.0607
C19A C25A	0.0869
C19A C25G	0.0863
C19A A33C	0.0946
C19A A33U	0.148
C19G A32G	0.267

Variant	self-cleavage
C19A C26U	0.0877
U18G A30U	0.0738
U18G C46A	0.0573
U18G G39C	0.0419
U18C U31G	0.477
U18C U31A	0.54
C19G G45A	0.321
C19A A34U	0.116
C19G G24C	0.125
C19G G24A	0.0928
C19G C27A	0.0851
C19G C27G	0.0733
U18G A33U	0.0323
U18C G42C	0.114
U18G U31G	0.102
U18G U31C	0.106
U18G U31A	0.0937
U18C C46U	0.599
U18C C46G	0.477
U18C C46A	0.463
C19A U37G	0.0778
C19A U37C	0.0949
C19G G36C	0.118
C19G G36A	0.101

Variant	self-cleavage
C19A G48U	0.206
C19A G45A	0.196
C19A G45U	0.257
C19A G41C	0.114
C19A G41U	0.109
U18G G36A	0.0894
U18G G36C	0.0571
C19G U37C	0.138
C19G U37A	0.0632
U18C G48A	0.368
U18C G48C	0.562
U18C G48U	0.496
C19G G38A	0.132
U18G G43C	0.116
U18G G43A	0.0708
C19A A40U	0.16
C19A A40C	0.148
U18C C26G	0.0519
U18C C26U	0.0772
U18C C21G	0.0463
U18G A34C	0.0636
U18G A34U	0.0388
U18G C25U	0.085
U18G C25A	0.138

Variant	self-cleavage
U18G C25G	0.0608
C19G C25G	0.124
C19G C25U	0.151
C19G G43U	0.685
U18C G39U	0.104
U18G U37C	0.0884
U18C G36C	0.1
U18G A23U	0.0485
C19U A22C	1.15
C19U A22U	0.601
C19A C27A	0.0712
C19A C27G	0.073
U18G A32G	0.0643
C19A G38U	0.12
C19A G38A	0.132
U18C G38A	0.371
U18C G38C	0.523
C19A G28U	0.179
C19G C21A	0.0839
C19G C21U	0.101
U18C G29A	0.275
U18G C19U	0.105
U18G A22U	0.0775
U18G A22G	0.0592

Variant	self-cleavage
C19A G24U	0.0798
C19A G24A	0.0849
U18G A35C	0.0813
C19A G43C	0.317
U18G G48U	0.117
C19G G44C	0.27
C19G G44U	0.29
U18C G43U	0.111
U18C G43A	0.188
U18C G43C	0.121
C19G C26G	0.0807
C19G C26A	0.0816
C19G A30C	0.0929
C19G A23G	0.0717
C19G A23C	0.0786
C19G C20U	0.117
C19G C20A	0.0695
C19G G29U	0.29
C19G G29C	0.0886
C19G A34G	0.108
C19G A34U	0.12
U18G G47U	0.0478
U18G G47A	0.0493
U18C G45C	0.132

Variant	self-cleavage
U18C G45A	0.48
C19G G47C	0.193
C19G G47A	0.105
U18C C25A	0.105
C19G U31C	0.492
C19G U31G	0.467
C19A G47A	0.139
C19A G47C	0.155
C19A G42A	0.135
C19A G42U	0.103
C19A G42C	0.197
C19G A33C	0.0963
C19A C46A	0.197
C19A A23C	0.126
C19A G36A	0.102
C19A A35G	0.095
C19G G42A	0.0847
C19A A30G	0.444
C19A A30U	0.349
C19A U31G	0.334
U18C C27G	0.0754
C19A A22C	0.127
C19A A22U	0.11
